From US20230068663A1 (University of Texas, published 2023)

B1: B2-15 (antibody, V domains shown)
VH: EVQLVQSGAEVKKSGASVKVSCKSSGYTFTNYGISWVRQAPGQGLEWMGWISGDAGDTKFAQKFQGRVTMTTDTSTTTTYMELRSLRSDDTAVYYCARDGEYIPMFRGFDNYYGLDVWGQGTLVSVSS
VL: QSVLTQPPSASATPGQRVTISCSGRNANIGSNPVNWYQQLPGTAPRLVMYSNNQRPSGVPDRFSGSKSGTSASLAISGLQSEDEADYYCEGWDDSLNGYVFGTGTKVTVL
notes: also called B-15; B2-15_HC
B2: B2-7 (antibody, V domains shown)
VH: EVQLVESGGGVVQPGRSLRLSCAASGFTISSYGMHWVRQAPGKGLEWVAVISYDGSNKYYADSVKGRFTISRDNSKNTLYLQMNSLRVEDTAVYYCAKDLLLRYFDWSPKYYYNGMDVWGQGTMVTVSS
VL: QSVLTQPPSVSVAPGKTARITCGGNNIGSKSVHWYQQKPGQAPVLVVYDDSDRPSGIPERFSGSNSGNTATLTISRVEAGDEADYYCQVWDSSSDHPGVFGTGTKVTVL
notes: also called B2-7_HC; B2-7_LC
B3: B2-19 (antibody, V domains shown)
VH: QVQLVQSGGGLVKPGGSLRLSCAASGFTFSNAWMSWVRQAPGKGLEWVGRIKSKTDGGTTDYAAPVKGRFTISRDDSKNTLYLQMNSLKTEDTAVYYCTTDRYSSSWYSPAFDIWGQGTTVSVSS
VL: QPVLTQPPSVSEAPRQRVTISCSGSSSNIGNNVVNWYQQLPGKAPKLLIYYDDLLPSGVSDRFSGSKSGTSASLAISGLQSEDEADYYCATWDDSLNGPVFGGGTKLTVL
notes: also called B2-19_HC; B2-19_LC
B4: B2-16 (antibody, V domains shown)
VH: QVQLVQSGAEVKKPGSSVKVSCKASGGTFSSYAISWVRQAPGQGLEWMGGIIPIFGTANYAQKFQGRVTITADESTSTAYMELSSLRSEDTAVYYCASGIIPDNPYGMDVWGQGTMVSVSS
VL: DIVMTQSPLSLPVTLGQPASISCTSSQSLVYSDGNTYLNWFHQRPGQSPRRLFYKVSNRASGVPDRFSGSGSGTDFTLKISRVEAEDLGVYYCMQGTHWPVTFGQGTRLEIK
notes: also called B2-16_HC; B2-16_LC
B5: B2-17 (antibody, V domains shown)
VH: EVQLLDSGPRLLKPSETLSLTCGVSGVSTSSTHWWSWVRQTPGKGLEWIGEILHNGNTNSNPSLKSRVSMSIDKSRNQFSLQLKSMTAADTAVYYCASASPNWGASGAFDAWAQGTMVTVSS
VL: QSVLTQPPSASATPGQRVTISCSGSSSNIGSNPVNWYQQVPGMAPELVMYSDNQRPSGVPDRFSGSNSGTSASLAISGLQSEDEADYYCSTWDDSLNGLVFGTGTKVTVL
notes: also called B2-17_HC; B2-17_LC

biological target: T1, LILRB2-His antigen (UniProt Q8N423 22-460, limits assumed); assay: indirect ELISA, coated LILRB2-His
T1 construct: Coated on ELISA plates; also used for phage panning; also called LILRB2 antigen; not shown: His tag
Method: ELISA binding EC of LILRB2 antibodies. The ELISA binding EC₅₀ of these 24 antibodies were measured by indirect ELISA. […] After incubation, HRP-conjugated goat anti-human Fc secondary antibody was incubated with the plates. The TMB substrate was added for color development and measurement of absorbance at 450 nm.

EC50 | Binder
46.5 nM | B1
82.9 nM | B2
3.82 nM | B3
9.97 nM | B4
24.6 nM | B5

biological target: T2, LILRB2 chimeric receptor on LILRB2 reporter cells (extracellular domain of LILRB2 fused with … (UniProt Q8N423 22-460)); assay: flow cytometry, LILRB2 reporter cells
T2 construct: extracellular domain;domain: transmembrane/intracellular domains; associates with DAP12; also called LILRB2-expressing reporter cells
Description: (§1) FIGS. 1A-C. Screening specific monoclonal antibodies for LILRB2. […] Binding of monoclonal antibodies was screened using flow cytometer on LILRB2 reporter cells. Bound antibodies were detected with Allophycocyanin (APC)-labeled goat anti-human IgG secondary antibody. (FIG. 1B) Quantification of binding ability of monoclonal antibodies to LILRB2 reporter cells.
(§2) Screening specific monoclonal antibodies for LILRB2. The inventors employed a stable reporter cell system to detect the binding ability of selected monoclonal antibodies to LILRB2. In this chimeric receptor reporter system, the extracellular domain (ECD) of LILRB2 is fused with transmembrane/intracellular domains of PILRb that associates with the adaptor protein DAP12 containing an immunoreceptor tyrosine-based activation motif. 27 monoclonal antibodies were screened. The LILRB2 reporter cells were incubated with selected monoclonal antibody, then labeled with (APC) goat anti-human IgG secondary antibody. […] The inventors generated LILRBAs and LILRBs reporters stably transduced with each receptor's extracellular domain (ECD).

% of cells anti-hIgG APC+ | Binder
94.3% | B1
94.2% | B2
95.3% | B3
95% | B4
94.3% | B5

biological target: T2, LILRB2 chimeric receptor on LILRB2 …; assay: flow cytometry on LILRB2 reporter cells, APC anti-human IgG
Description: as §1, §2

percent of LILRB2 reporter cells labeled | Binder
> 95% | B1
> 95% | B2
> 95% | B3
> 95% | B4
> 95% | B5

biological target: T3, full length human LILRB2 stably expressed on HEK293 cells (human, UniProt Q8N423 22-597); assay: flow cytometry, HEK293 cells expressing full length human LILRB2
T3 construct: whole, on cells; also called HEK293_LILRB2
Method: FIG. 31. Binding of LILRB2 antibodies on HEK293 stably expressing full length human LILRB2. Fifty thousand cells were incubated with a dilution series (40-0.0006 μg/mL) of LILRB2 antibodies in a final volume of 100 μL. Bound antibodies were detected with anti-human Fc-specific secondary antibody conjugated to AF647. All incubations were performed for 30 minutes at 4° C. Data shown is averaged geometric mean fluorescence intensity ± standard error of the mean (s.e.m.) after sample acquisition (in duplicates) in flow cytometer (BD FACS Celesta) and subtracted by background fluorescence of samples incubated with secondary antibody only.

EC50 | Binder
0.101 µg/mL | B1
0.212 µg/mL | B2
0.208 µg/mL | B3
0.277 µg/mL | B4
0.105 µg/mL | B5
